Molecular target: the molecule itself
Assay: negative-stain electron microscopy of purified complexes

B1: Cdc11 (natural protein, S. cerevisiae, UniProt P32458 1-415, looked up)
chain: MSGIIDASSALRKRKHLKRGITFTVMIVGQSGSGRSTFINTLCGQQVVDTSTTILLPTDTSTEIDLQLREETVELEDDEGVKIQLNIIDTPGFGDSLDNSPSFEIISDYIRHQYDEILLEESRVRRNPRFKDGRVHCCLYLINPTGHGLKEIDVEFIRQLGSLVNIIPVISKSDSLTRDELKLNKKLIMEDIDRWNLPIYNFPFDEDEISDEDYETNMYLRTLLPFAIIGSNEVYEMGGDVGTIRGRKYPWGILDVEDSSISDFVILRNALLISHLHDLKNYTHEILYERYRTEALSGESVAAESIRPNLTKLNGSSSSSTTTRRNTNPFKQSNNINNDVLNPASDMHGQSTGENNETYMTREEQIRLEEERLKAFEERVQQELLLKRQELLQREKELREIEARLEKEAKIKQEE
binding result: binds

— article PMC3079881 (Developmental cell, 2011)
